Source: US20250027068A1 (published 2025)
Residue numbers refer to the chain shown, from its start.

B1: PRT-280 (enzyme)
chain: MVTSVWTKGVTPPAKFTQGEDVFHAPYVANQGWYDITKTFNGKDDLLCGAATAGNMLHWWFDQNKEKIEAYLKKHPDKQKIMFGDQELLDVRKVINTKGDQTNSELFNYFRDKAFPNLSARRIGVMPDLVLDMFINGYYLNVYKTQTTDVNRTYQEKDRRGGIFDAVFTRGDQSKLLTSRHDFKEKNLKEISDLIKKELTEGKALGLSHTYANVGINHVINLWGADFDSNGNLKAIYVTDSDSNASIGMKKYFVGVNSSGKVAISAKEIKEDNIGAQVLGLFTLSTGQDSWNQTN
B2: PRT-288 (enzyme)
chain: B1 chain with V28D, T39E, G215R, N217G, F253G, S259A
B3: PRT-401 (enzyme)
chain: MVTSVWTKGVTPPADFTQGEDVFHAPYVANQGWYDITKEFNGKDDLLCGAATAGNMLHWWFDQNKEYIEAYLKKHPEKQKIMFGDQELLDVRKAINTKGSQKNSELFNYFRDKAFPNLSARRLGVMPDLVLDMFINGYYLNVTKTQTTDVNRTYQEKDKRGGIFDAVFTRGDQSKLLTSRHDFKEKGLKEISDLIKQELTEGKALGLSHTYANVRINHVINLWGADFDSDGNLKAIYVTDSDSNASIGMKKYFVGVNSAGKVAISAKEIKEDNIGAQVLGLFTLSTGQDIWNQTN
B4: PRT-409 (enzyme)
chain: B3 chain with E39T, D172V
B5: PRT-219 (enzyme)
chain: MEVVEVWPYGQNPNGKTEILSQTEDSESLQRLRDIEDFQAEKKKQNVVYTKWLDGVTVDDSDFRKIKDGNTEYYATPLLNGRGFYDINKDFNRDSDKCAAAVAANMFHYWLDRNRDNVDRFLKQNPEKHGIIELPDGQLKLSDFLNTYESDNNYRDKSKLFDFISKNFNGPVWTNKLLDNYINGYGYNYKYGRTIEDPTKNTSKINFFKKVFNEKILTNVHQIFNYNEFSTLLSEALYTGKAIGLSYGPGGLRHSLGHIISVWGADLDADGNVVAIYVTDSDDKKLTIGDERVGLKRYKISTDDEGRARLTAYTETDNTGGQVRGIWTLDTGKQAWADYFDKTEQTGTDQAEQLEHHHHHH
B6: PRT-220 (enzyme)
chain: MEVVEVWPYGQNPNGKTEILSQTEDSESLQRLRDIEDFQAEKKKQGVVYTKWLDGVNVDDHEFRKITDGNTEYYATPLLNGRGYYDINKDFNRDSDKCAAAVAANMFHYWLDRNRDNVDRFLRQNPDKHGIIELPDGQLKLSDFLNTYESDHDYRDKSKLFDFISNNFNGPVWTNKLLDNYINGYGYNYKYGRTIEDPTKNTSKINFFKEVFNGKLLTDNHSIRNKNEFSSKLSEALYTGKAIGLSYGPAGLRHSLGHIISVWGADLDEDGNVVAIYVTDSDDKKLTIGDERVGLKRYKVSYDDEGRARLTAYEETDNTGGEIRGLWTLDTGKQYWADYFDKTEQTGTDQAEQLEHHHHHH
B7: PRT-221 (enzyme)
chain: MEVVEVWPYGQNPNGKTEILSQTEDSESLQRLRDIEDFQAEKKMQNVVYTKWLDGVDVKDHDFRKIVDGNIAYYATPLLNGRGFYDINKDFNRDSDKCAAAVAANMFHYWLDINRDNVDRFLRQNPEKHGIIELPDGQLKLSDFLNTYESDHGYRDKSKLFDFISNNFNGPVWTDKLLDNYINGYAYNYKYGRTIEDPTKNTSKINFFKEVFNEKILTNNHSIRNQNEFSVLLSEALYTGKAIGLSYGPAGLRHSLGHIISVWGADLDADGNVVAIYVTDSDDKKLTIGDERVGLKRYKISTDDENRLRLTAYEETHNTGGQIRGLWTLDTGKQAWADYFDKTEQTGTDQAEQLEHHHHHH
B8: PRT-225 (enzyme)
chain: B7 chain with M44K, Q45E, A72E, L308A, H317D
B9: PRT-222 (enzyme)
chain: B7 chain with N306G, Q334Y
B10: PRT-223 (enzyme)
chain: B7 chain with M44K, Q45E, V231D
B11: PRT-226 (enzyme)
chain: B7 chain with M44K, K59D, I71T, A72E, I113R, D175N, A186G, N306G, L308A, H317D
B12: PRT-224 (enzyme)
chain: B7 chain with M44K, N306G
B13: PRT-376 (enzyme)
chain: MVTSVWTKGVTPPTNFTYGEDVLHAPYVANQGWYDITKLFNGKDDLLCGAATAGNMLHWWFDQNKEQIENYLKKHPEKQKINFNGEQMFDVKEAIDTKDSQLDSKLFEYFKEKAFPYLSTKHLGVFPDHVIDMFINGYRLSLTNHGPTPVKRGSKDPRGGIFDAVFTRGDQSKLLTNRHDFKEKTLKEISDLIKQELTEGKALGISHTYANVRINHVINLWGADFDAEGNLEAIYVTDSDSNASIGMKKYFVGVNSNGKVAISAKEIEEDNIGAQVLGLFTLSTGQDIWNQTN
B14: PRT-393 (enzyme)
chain: B13 chain with L39T, S241T
B15: PRT-385 (enzyme)
chain: B13 chain with L39T, V212G

Key:
[1] = molecular target: pooled human IgG (human IgG1, 2, 3 and 4) (human); experiment: cell-based or functional assay
pooled human IgG = pooled human IgG (human); experiment: cell-based or functional assay
Note: test concentration or dose not given here.

Binder | Enzyme Activity Endpoint Assay: Fab′2 [1] [ng/µL] | Enzyme Activity Endpoint Assay: Fc [1] [ng/µL] | Enzyme Activity Endpoint Assay: IgG [1] [ng/µL] | Enzyme Activity Endpoint Assay: scIgG [1] [ng/µL] | Enzyme Activity Endpoint Assay (purified): Fab′2 (pooled human IgG) [ng/µL] | Enzyme Activity Endpoint Assay (purified): Fc (pooled human IgG) [ng/µL] | Enzyme Activity Endpoint Assay (purified): IgG (pooled human IgG) [ng/µL] | Enzyme Activity Endpoint Assay (purified): scIgG (pooled human IgG) [ng/µL]
B1 | 423 | 305 | 319 | 0 |  |  |  | 
B2 | 439 | 334 | 348 | 0 |  |  |  | 
B3 | 624 | 329 | 128 | 0 |  |  |  | 
B4 | 658 | 313 | 0 | 0 |  |  |  | 
B5 |  |  |  |  | 104 | 407 | 886 | 443
B6 |  |  |  |  | 0 | 61 | 2320 | 0
B7 |  |  |  |  | 117 | 439 | 653 | 461
B8 |  |  |  |  | 0 | 63 | 1500 | 0
B9 |  |  |  |  | 487 | 78 | 1550 | 21
B10 |  |  |  |  | 189 | 391 | 375 | 316
B11 |  |  |  |  | 0 | 0 | 1960 | 0
B12 |  |  |  |  | 217 | 382 | 344 | 314
B13 | 496 | 325 | 0 | 196 |  |  |  | 
B14 | 663 | 317 | 0 | 0 |  |  |  | 
B15 | 494 | 265 | 103 | 56 |  |  |  | 
